Data reported in the supplement of paper PMC6757056.
± gives the standard deviation of the averaged measurements.

B1: library; a variant is named by its letters at N, in order (parent)
chain: GCUGUCACCGGUGUAUUACCCUAGUGGUCGACCGGUCUGAUGAGUCUNNNNNNAGACGAAACAGC

Assays:
hypoxanthine [1] = variants of: B1; assay: FACS-Seq fitted mean relative fluorescence mCherry/BFP without ligand (log10 relative fluorescence); ligand: hypoxanthine (xanthine aptamer); higher = higher reporter protein expression; conditions: HEK293T, ligand present: no
How it was run: (§1)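 Fluorescence comes from a normal fit to bin counts, normalized against controls. HEK293T libraries lentivirally given a ribozyme-switch mCherry reporter and an EF1α-BFP marker were enriched, incubated 48 h with or without ligand, and sorted by mCherry/BFP into 6 bins. Bin genomic DNA was PCR-amplified, barcoded and sequenced on MiSeq. The log10(mCherry/BFP) mean was scaled to five spiked-in control ribozymes.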

hypoxanthine [2] = variants of: B1; assay: normalized RNA/DNA level with ligand (relative to sTRSVctl = 100) (log10 (% of sTRSVctl)); ligand: hypoxanthine (xanthine aptamer); higher = less ribozyme self-cleavage, higher mRNA level; conditions: ligand concentration (+) RNA-Seq: 5 mM, HEK293T, reporter: mCherry (pCS4076), ligand present: yes
How it was run: (§2)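 For each 6-well well, 4 µg of library plasmid encoding mCherry-linked ribozyme switches, or eGFP-linked ones in some ligand experiments, was transfected into HEK293T. Any ligand was added 1 h before transfection, and RNA was extracted with EDTA 72 h after it, then reverse-transcribed, amplified, barcoded and sequenced. RNA level was obtained by dividing RNA reads by DNA reads, normalizing to a spiked-in non-cleaving sequence or to the top sequences, then scaling and log-transforming. The top set was 25 sequences, scaling was ×100 with log10, and ≥100 DNA reads were required.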

hypoxanthine [3] = variants of: B1; assay: normalized RNA/DNA level without ligand (relative to sTRSVctl = 100) (log10 (% of sTRSVctl)); ligand: hypoxanthine (xanthine aptamer); higher = less ribozyme self-cleavage, higher mRNA level; conditions: HEK293T, reporter: mCherry (pCS4076), ligand present: no
How it was run: as §2

hypoxanthine [4] = variants of: B1; assay: FACS-Seq fitted mean relative fluorescence mCherry/BFP with ligand (log10 relative fluorescence); ligand: hypoxanthine (xanthine aptamer); ligand concentration (+) FACS-Seq: 5 mM; higher = higher reporter protein expression; conditions: HEK293T, ligand present: yes
How it was run: as §1

Variant | FACS-Seq fitted mean (log10) (hypoxanthine [1]) | normalized RNA/DNA level with ligand (log10) (hypoxanthine [2]) | normalized RNA/DNA level without ligand (log10) (hypoxanthine [3]) | FACS-Seq fitted mean (log10) (hypoxanthine [4])
GUCGGG | 0.355 ± 0.068 | 1.882 ± 0.0031 | 1.58 ± 0.12 | -0.0447 ± 0.038
GUCGGC | 0.485 ± 0.026 | 1.91 ± 0.025 | 1.68 ± 0.042 | 0.81 ± 0.023
GUGACG | 0.259 ± 0.081 | 1.828 ± 0.0026 | 1.37 ± 0.044 | 0.523 ± 0.031
GUGACU | -0.666 ± 0.018 | 1.92 ± 0.02 | 1.88 ± 0.049 | -0.229 ± 0.049
AUGGUG | -0.243 ± 0.17 | 1.79 ± 0.062 | 1.331 ± 0.0014 | 0.0458 ± 0.031
AUGGUA | 0.303 ± 0.033 | 1.86 ± 0.045 | 1.73 ± 0.048 | 0.304 ± 0.016
AUGGUC | 0.812 ± 0.048 | 2 ± 0.036 | 1.92 ± 0.033 | 0.6851 ± 0.0041
AUCCCG | 0.0616 ± 0.017 | 1.86 ± 0.04 | 1.51 ± 0.11 | 0.148 ± 0.14
GUCAGA | -0.213 ± 0.0037 | 1.897 ± 0.0028 | 1.74 ± 0.042 | -0.0451 ± 0.017
GUCAGG | 0.326 ± 0.071 | 1.858 ± 0.016 | 1.46 ± 0.042 | 0.67 ± 0.0068
GUCAGC | 0.371 ± 0.0086 | 1.925 ± 0.011 | 1.79 ± 0.018 | 0.605 ± 0.059
GUCAGU | 0.34 ± 0.024 | 1.94 ± 0.023 | 1.833 ± 0.0092 | 0.492 ± 0.11
GUGGCG | 0.283 ± 0.0056 | 1.94 ± 0.02 | 1.608 ± 0.011 | 0.342 ± 0.023
AUCUUG | 0.269 ± 0.0029 | 1.846 ± 0.015 | 1.59 ± 0.039 | 0.48 ± 0.04
GUCCGG | 0.2204 ± 0.002 | 1.9355 ± 0.0013 | 1.64 ± 0.081 | 0.524 ± 0.11
UUCACA | 0.502 ± 0.065 | 1.9 ± 0.051 | 1.88 ± 0.05 | 0.58 ± 0.026
AUGCAA | 0.192 ± 0.045 | 1.87 ± 0.022 | 1.72 ± 0.038 | 0.221 ± 0.068
AUGCAG | 0.251 ± 0.022 | 1.756 ± 0.01 | 1.29 ± 0.019 | 0.682 ± 0.039
